The record followed here is patent publication US20020082384A1, “Process for folding chemically synthesized polypeptides” (priority 2000, published 2002).

Assay [1] relates to human lymphocytes. Kind of assay: Binding of 125I-labelled chemokine to human lymphocytes. As to conditions: binding of 125I-labelled chemokine to human lymphocytes (FIG. 6). Here is the method:
FIG. 6 is a graph of the comparison between the biological activity of recombinant I-309 and the synthetic, folded I-309 of the present invention. Biological activity was asses-sed by binding the chemokine, labelled with ^125I, to human lymphocytes.
Folding of the chemokine derivative purified byRP-HPLC was carried out by dissolving 65 mg of product in 60 ml of 0.6 M GuHCl, 10 mM NaHPO4 and 1 mM Tris at pH 8.0 and adding cysteine at a concentration of 100 fold molar excess with respect to the peptide. The polypeptide solution was left at 37° C. for 4 days. Complete cysteine pairing was checked by mass spectrometry after reaction with N-ethyhnaleimide (NEM). The yield of final folded chemokine was almost 25%.

The test system of assay [2] is fresh monocytes. Kind of assay: Migration across a polycarbonate filter in response to TARC (Imai method), monocytes. In kind it is cell-based, human. Here is the method: (§1) The biological activity of hu-TARC obtained by the methodology of the present invention was performed according to the Imai method (T. Imai et al., J. Biol. Chem., 271, 21514, 1996).
(§2) Human T cell lines, Hut78, Hut 102, and Jurkat, as well as fresh monocytes, neutrophils and lymphocytes were assessed for their migration across a polycarbonate filter in response to TARC.

Assay [3] has as its system neutrophils. Kind of assay: Migration across a polycarbonate filter in response to TARC (Imai method), neutrophils. In kind it is cell-based, human. Here is the method:
as §1, §2

B1: synthetic, folded, hu-I-309: human chemokine I-309, chemically synthesized with 6 S-t-Bu protected cysteines and folded with cysteine (peptide, UniProt P22362 24-96, looked up)
C-C motif chemokine 1: KSMQVPFSRCCFSFAEQEIPLRAILCYRNTSSICSNEGLIFKLKRGKEACALDTVGWVQRHRKMLRHCPSKRK
Consider B1, for which the “biological activity compared with recombinant I-309” value in assay [1] was “equivalent to recombinant protein”.

B2: synthetic TARC: 71-residue human thymus and activation regulated chemokine, chemically synthesized as Cys10,11,34,50(S-t-Bu) derivative and folded with cysteine (peptide, UniProt Q92583 24-94, looked up)
C-C motif chemokine 17: ARGTNVGRECCLEYFKGAIPLRKLKTWYQTSEDCSRDAIVFVTVQGRAICSDPNNKRVKNAVKYLQSLERS
On to B2, for which the chemotactic response entry in assay [2] and in assay [3] was “No chemotactic response” throughout.

B3: recombinant TARC: recombinant thymus and activation regulated chemokine used as comparator (protein, UniProt Q92583 24-94, looked up)
C-C motif chemokine 17: B2 C-C motif chemokine 17
In the case of B3, the chemotactic response entry in assay [2] and in assay [3] was “No chemotactic response” in each case.
